Test results as given in patent publication US12559545.

Tests used:
[1] = molecular target: full-length HeV-RBP expressed on the surface of transfected cells (Hendra virus) (UniProt O89343)
[2] = molecular target: full-length NiVB-RBP expressed on the surface of transfected cells (Nipah virus, strain Bangladesh) (UniProt Q9IH62)
[3] = molecular target: full-length NiVM-RBP expressed on the surface of transfected cells (Nipah virus, strain Malaysia) (UniProt Q9IH62)
[4] = molecular target: HeV RBP on live Hendra virus (Hendra virus) (UniProt O89343); test: cell-based or functional assay
[5] = molecular target: NiVB RBP on live Nipah virus Bangladesh (Nipah virus, strain Bangladesh) (UniProt Q9IH62); test: cell-based or functional assay
[6] = molecular target: HeV-RBP head domain (residues 185-604), recombinant soluble (Hendra virus) (UniProt O89343); test: ELISA, RBP head domain coated on plate, hybridoma IgG
[7] = molecular target: NiVB-RBP head domain (residues 185-602), recombinant soluble (Nipah virus, strain Bangladesh) (UniProt Q9IH62); test: as above
[8] = molecular target: NiVM-RBP head domain (residues 183-602), recombinant soluble (Nipah virus, strain Malaysia) (UniProt Q9IH62); test: as above
[9] = molecular target: HeV-RBP head domain (residues 185-604), recombinant soluble (Hendra virus) (UniProt O89343); test: BLI on HeV RBP head domain, after first mAb HENV-1
[10] = molecular target: HeV-RBP head domain (residues 185-604), recombinant soluble (Hendra virus) (UniProt O89343); test: BLI on HeV RBP head domain, after first mAb HENV-2
[11] = molecular target: HeV-RBP head domain (residues 185-604), recombinant soluble (Hendra virus) (UniProt O89343); test: BLI on HeV RBP head domain, after first mAb HENV-9
[12] = molecular target: HeV-RBP head domain (residues 185-604), recombinant soluble (Hendra virus) (UniProt O89343); test: BLI on HeV RBP head domain, after first mAb HENV-10
[13] = molecular target: HeV-RBP head domain (residues 185-604), recombinant soluble (Hendra virus) (UniProt O89343); test: BLI on HeV RBP head domain, after first mAb HENV-18
[14] = molecular target: HeV-RBP head domain (residues 185-604), recombinant soluble (Hendra virus) (UniProt O89343); test: BLI on HeV RBP head domain, after first mAb HENV-19
[15] = molecular target: HeV-RBP head domain (residues 185-604), recombinant soluble (Hendra virus) (UniProt O89343); test: BLI on HeV RBP head domain, after first mAb HENV-21
[16] = molecular target: HeV-RBP head domain (residues 185-604), recombinant soluble (Hendra virus) (UniProt O89343); test: BLI on HeV RBP head domain, after first mAb HENV-26
[17] = molecular target: HeV-RBP head domain (residues 185-604), recombinant soluble (Hendra virus) (UniProt O89343); test: BLI on HeV RBP head domain, after first mAb HENV-32
[18] = molecular target: HeV-RBP head domain (residues 185-604), recombinant soluble (Hendra virus) (UniProt O89343); test: BLI on HeV RBP head domain, after first mAb HENV-43

## HENV-26 (antibody)
[1]
  EC50: 0.325 µg/mL
[2]
  EC50: 0.326 µg/mL
[3]
  EC50: 0.326 µg/mL
[4]
  Area under the curve (neutralization): 281
  IC50, plaque reduction neutralization of live virus: 0.07 µg/mL
  IC80, plaque reduction neutralization of live virus: 0.19 µg/mL
  Max % Inhibition (neutralization): 100%
[5]
  Area under the curve (neutralization): 289
  IC50, plaque reduction neutralization of live virus: 0.03 µg/mL
  IC80, plaque reduction neutralization of live virus: 0.12 µg/mL
  Max % Inhibition (neutralization): 100%
[6]
  Area under the curve: 5.39
  EC50: 0.14 µg/mL
[7]
  Area under the curve: 10.5
  EC50: 0.09 µg/mL
[8]
  Area under the curve: 11
  EC50: 0.07 µg/mL
[9]
  % of signal of second mAb alone: 97%
[10]
  % of signal of second mAb alone: 97%
[11]
  % of signal of second mAb alone: 97%
[12]
  % of signal of second mAb alone: 100%
[13]
  % of signal of second mAb alone: 91%
[14]
  % of signal of second mAb alone: 91%
[15]
  % of signal of second mAb alone: 99%
[16]
  % of signal of second mAb alone: -5%
[17]
  % of signal of second mAb alone: 100%
[18]
  % of signal of second mAb alone: 109%
